Residue numbers refer to the chain shown, from its start.
B1: CM149 (designed binder)
Ubv: MHHHHHHGGSGYLIFVRMLTGKMIELEVMPSDTIEVIKAKIQDHEGIPLDEQHLTFQGTLLDDGYTLGDYNLLIDPKKMPLLRMQ
B2: CM149-DM (designed binder)
Ubv: B1 Ubv with P80L, L81V
notes: also called CM210

Assays:
[1] = biological target: MBP tagged 53BP1 fragment (a.a. 1484-1603); assay: BLI, fold change Ka of Ubv/Ka of CM1
[2] = biological target: MBP tagged 53BP1 fragment (a.a. 1484-1603); assay: BLI, KA (M-1), log axis

| Binder | binding result [1] | binding result [2] |
| --- | --- | --- |
| B1 | binds | – |
| B2 | – | binds |

— US20230135471A1 (INTEGRATED DNA TECHNOLOGIES, published 2023)
